# According to US20170065725A1:
# Target: porcine TSH receptor (immobilized, TSH Receptor Autoantibody 2nd Generation ELISA kit, RSR Limited) (porcine) (UniProt Q8SPP9)
# Assay: competition ELISA; inhibition of biotinylated rhTSH binding to immobilized porcine TSH receptor
# Sequence of porcine TSH receptor (immobilized, TSH Receptor Autoantibody 2nd Generation ELISA kit, RSR Limited) (porcine) (Q8SPP9 22-764 limits assumed): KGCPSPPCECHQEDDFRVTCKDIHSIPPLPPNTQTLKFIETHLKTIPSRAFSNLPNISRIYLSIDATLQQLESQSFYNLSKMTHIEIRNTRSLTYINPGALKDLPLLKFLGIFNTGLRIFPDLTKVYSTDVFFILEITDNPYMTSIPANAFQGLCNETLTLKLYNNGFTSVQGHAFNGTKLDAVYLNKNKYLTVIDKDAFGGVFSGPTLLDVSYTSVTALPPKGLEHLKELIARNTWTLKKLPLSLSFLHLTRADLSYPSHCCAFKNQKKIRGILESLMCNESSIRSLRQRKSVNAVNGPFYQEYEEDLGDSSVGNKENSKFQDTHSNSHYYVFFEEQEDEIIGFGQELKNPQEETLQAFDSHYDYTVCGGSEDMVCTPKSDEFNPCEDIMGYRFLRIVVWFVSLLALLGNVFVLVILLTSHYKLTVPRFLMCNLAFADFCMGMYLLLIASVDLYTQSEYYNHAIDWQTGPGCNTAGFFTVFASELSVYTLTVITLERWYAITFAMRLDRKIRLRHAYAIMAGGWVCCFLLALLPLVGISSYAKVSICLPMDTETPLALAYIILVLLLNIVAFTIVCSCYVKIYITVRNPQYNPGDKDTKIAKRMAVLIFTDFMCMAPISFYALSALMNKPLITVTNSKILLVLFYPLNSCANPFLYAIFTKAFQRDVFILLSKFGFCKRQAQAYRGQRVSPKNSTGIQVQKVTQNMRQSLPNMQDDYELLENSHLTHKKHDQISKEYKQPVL
# Sequence of PEG rhTSH (40 KD GAM+), monoPEGylated (ligand) (P01215 25-116): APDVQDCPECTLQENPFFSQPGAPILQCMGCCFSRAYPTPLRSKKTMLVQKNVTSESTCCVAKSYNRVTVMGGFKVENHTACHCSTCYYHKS
# Sequence of PEG rhTSH (40 KD GAM+), monoPEGylated (ligand) (P01222 21-138, further chain): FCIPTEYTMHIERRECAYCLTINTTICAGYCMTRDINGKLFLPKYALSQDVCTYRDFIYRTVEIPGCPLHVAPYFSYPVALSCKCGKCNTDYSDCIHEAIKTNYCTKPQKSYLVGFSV
# Sequence of PEG rhTSH (20 KD GAM-), monoPEGylated (ligand) (P01215 25-116): as the sequence (P01215 25-116) above
# Sequence of PEG rhTSH (20 KD GAM-), monoPEGylated (ligand) (P01222 21-138, further chain): as the sequence (P01222 21-138, further chain) above
# Sequence of PEG rhTSH (10 KD MultiSAM) (ligand) (P01215 25-116): as the sequence (P01215 25-116) above
# Sequence of PEG rhTSH (10 KD MultiSAM) (ligand) (P01222 21-138, further chain): as the sequence (P01222 21-138, further chain) above
# Sequence of mono-40 kDa NHS PEG-TSH (Lysine PEGylation) (ligand) (P01215 25-116): as the sequence (P01215 25-116) above
# Sequence of mono-40 kDa NHS PEG-TSH (Lysine PEGylation) (ligand) (P01222 21-138, further chain): as the sequence (P01222 21-138, further chain) above
# Sequence of PEG rhTSH (20 KD GAM+), monoPEGylated (ligand) (P01215 25-116): as the sequence (P01215 25-116) above
# Sequence of PEG rhTSH (20 KD GAM+), monoPEGylated (ligand) (P01222 21-138, further chain): as the sequence (P01222 21-138, further chain) above
# Sequence of PEG rhTSH (20 KD SAM), monoPEGylated (ligand) (P01215 25-116): as the sequence (P01215 25-116) above
# Sequence of PEG rhTSH (20 KD SAM), monoPEGylated (ligand) (P01222 21-138, further chain): as the sequence (P01222 21-138, further chain) above
# Sequence of PEG rhTSH (40 KD GAM-), monoPEGylated (ligand) (P01215 25-116): as the sequence (P01215 25-116) above
# Sequence of PEG rhTSH (40 KD GAM-), monoPEGylated (ligand) (P01222 21-138, further chain): as the sequence (P01222 21-138, further chain) above
# Sequence of PEG rhTSH (40 KD SAM), monoPEGylated (ligand) (P01215 25-116): as the sequence (P01215 25-116) above
# Sequence of PEG rhTSH (40 KD SAM), monoPEGylated (ligand) (P01222 21-138, further chain): as the sequence (P01222 21-138, further chain) above
# Sequence of PEG rhTSH (10 KD SAM), monoPEGylated (ligand) (P01215 25-116): as the sequence (P01215 25-116) above
# Sequence of PEG rhTSH (10 KD SAM), monoPEGylated (ligand) (P01222 21-138, further chain): as the sequence (P01222 21-138, further chain) above
Substance,IC50,fold change (IC50 against rhTSH)
PEG rhTSH (10 KD MultiSAM) (ligand),138 nM,3.8 fold
"PEG rhTSH (10 KD SAM), monoPEGylated (ligand)",78.1 nM,2.1 fold
"PEG rhTSH (20 KD GAM+), monoPEGylated (ligand)",81.7 nM,2.2 fold
"PEG rhTSH (20 KD GAM-), monoPEGylated (ligand)",101 nM,2.7 fold
"PEG rhTSH (20 KD SAM), monoPEGylated (ligand)",92.3 nM,2.5 fold
"PEG rhTSH (40 KD GAM+), monoPEGylated (ligand)",133 nM,3.6 fold
"PEG rhTSH (40 KD GAM-), monoPEGylated (ligand)",294 nM,8 fold
"PEG rhTSH (40 KD SAM), monoPEGylated (ligand)",196 nM,5.3 fold
mono-40 kDa NHS PEG-TSH (Lysine PEGylation) (ligand),876 nM,31.2 fold
